No end group written: not given here. nYFP = N-terminal end of yellow fluorescent protein
T1: Arabidopsis Nuclear Factor YB7 (AtNF-YB7), recombinant, tagged, for pull-down (Arabidopsis, UniProt Q9SIT9 1-215)
T1 construct: Contains a histone-fold-like domain; also called AtNF-YB7-GST fusion protein
T1 sequence (looked up): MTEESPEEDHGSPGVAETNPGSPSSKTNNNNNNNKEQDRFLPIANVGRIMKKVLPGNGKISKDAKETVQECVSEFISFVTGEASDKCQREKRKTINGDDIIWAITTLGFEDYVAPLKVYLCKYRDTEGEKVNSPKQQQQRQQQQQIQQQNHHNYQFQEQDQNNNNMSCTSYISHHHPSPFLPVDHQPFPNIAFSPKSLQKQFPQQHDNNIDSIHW

T2: AtNF-YC4-cYFP (Arabidopsis thaliana, UniProt Q9FMV5 1-250)
T2 construct: BiFC construct expressed in tobacco leaves; AtNF-YC4 is fused in-frame to the N-terminus of cYFP; not shown: cYFP (C-terminal end of yellow fluorescent protein)
T2 sequence (looked up): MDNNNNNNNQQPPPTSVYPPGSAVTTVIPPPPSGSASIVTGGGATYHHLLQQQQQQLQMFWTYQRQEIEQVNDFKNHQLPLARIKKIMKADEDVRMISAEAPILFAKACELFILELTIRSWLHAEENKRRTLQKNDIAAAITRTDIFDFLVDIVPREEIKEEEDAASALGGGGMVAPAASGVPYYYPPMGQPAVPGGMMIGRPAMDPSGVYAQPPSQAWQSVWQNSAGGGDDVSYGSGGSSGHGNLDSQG


Assays:
[1] = molecular target: T1, Arabidopsis Nuclear Factor YB7 …; assay: GST pull-down
AtNF-YC4-cYFP = molecular target: T2, AtNF-YC4-cYFP; assay: in vivo co-expression in tobacco leaf
Experimental: QQS and AtNF-YC4 were fused in-frame to the N-terminus of nYFP (N-terminal end of yellow fluorescent protein (YFP)) and cYFP (C-terminal end of YFP), respectively. Agrobacterium strain GV3101 transformed with QQS-nYFP and AtNF-YC4-cYFP constructs were co-infiltrated into Nicotiana tabacum. The reconstituted YFP signal was observed 48 h after infiltration under a Zeiss Axioplan II fluorescence microscope.

binding result [1] | binding result (AtNF-YC4-cYFP) | Binder
no binding |  | GST-QQS fusion protein (other, also: fused to GST tag, position and linker not given here, also called GST-tagged QQS; not shown: glutathione-S-transferase (GST) tag) MKTNREQEIYVERSFKPNNSTIQNLMDIERFILPHTSTSGVARLKMRVISWVGLQFYNY
 | binds | QQS-nYFP (other, also: nYFP limits and sequence not given here, BiFC construct expressed in tobacco leaves; QQS is fused in-frame to the N-terminus of nYFP; not shown: nYFP (N-terminal end of yellow fluorescent protein)) MKTNREQEIYVERSFKPNNSTIQNLMDIERFILPHTSTSGVARLKMRVISWVGLQFYNY-nYFP

Source: patent US20260139263A1 (IOWA STATE UNIVERSITY RESEARCH FOUNDATION, published 2026)
